From patent publication US20100298612

Legend:
[1] = molecular target: T1, Nocardia NRRL5646 carboxylic acid reductase (CAR)
T1 chain: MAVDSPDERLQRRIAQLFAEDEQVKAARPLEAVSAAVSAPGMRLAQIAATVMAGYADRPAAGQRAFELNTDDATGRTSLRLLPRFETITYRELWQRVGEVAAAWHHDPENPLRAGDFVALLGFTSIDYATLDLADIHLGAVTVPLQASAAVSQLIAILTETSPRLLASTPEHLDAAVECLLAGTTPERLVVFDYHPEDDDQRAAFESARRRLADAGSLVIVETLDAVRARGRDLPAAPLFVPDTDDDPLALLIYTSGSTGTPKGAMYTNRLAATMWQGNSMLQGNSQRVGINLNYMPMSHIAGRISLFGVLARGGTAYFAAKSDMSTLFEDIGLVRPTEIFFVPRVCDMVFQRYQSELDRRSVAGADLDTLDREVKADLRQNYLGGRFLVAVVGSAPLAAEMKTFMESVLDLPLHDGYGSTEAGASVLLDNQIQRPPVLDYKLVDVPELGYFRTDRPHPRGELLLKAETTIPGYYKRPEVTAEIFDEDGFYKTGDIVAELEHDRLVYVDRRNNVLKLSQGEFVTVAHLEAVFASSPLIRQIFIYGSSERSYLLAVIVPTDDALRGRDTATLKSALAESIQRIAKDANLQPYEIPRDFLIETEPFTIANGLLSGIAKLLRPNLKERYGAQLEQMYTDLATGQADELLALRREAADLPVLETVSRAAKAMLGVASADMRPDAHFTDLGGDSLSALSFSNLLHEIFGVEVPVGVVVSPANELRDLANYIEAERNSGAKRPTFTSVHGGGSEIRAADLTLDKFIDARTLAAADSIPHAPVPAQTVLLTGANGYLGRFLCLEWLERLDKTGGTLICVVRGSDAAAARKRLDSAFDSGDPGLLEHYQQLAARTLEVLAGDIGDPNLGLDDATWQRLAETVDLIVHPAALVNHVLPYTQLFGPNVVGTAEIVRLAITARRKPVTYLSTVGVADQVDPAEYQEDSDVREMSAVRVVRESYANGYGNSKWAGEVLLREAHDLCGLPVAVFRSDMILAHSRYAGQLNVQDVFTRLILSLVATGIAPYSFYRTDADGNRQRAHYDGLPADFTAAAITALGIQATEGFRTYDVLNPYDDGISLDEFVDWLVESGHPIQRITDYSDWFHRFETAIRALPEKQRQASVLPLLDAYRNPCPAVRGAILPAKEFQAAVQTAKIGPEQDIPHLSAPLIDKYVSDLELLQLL

[2] = molecular target: T2, Mycobacterium sp. (strain JLS) carboxylic acid reductase (CAR)
T2 chain: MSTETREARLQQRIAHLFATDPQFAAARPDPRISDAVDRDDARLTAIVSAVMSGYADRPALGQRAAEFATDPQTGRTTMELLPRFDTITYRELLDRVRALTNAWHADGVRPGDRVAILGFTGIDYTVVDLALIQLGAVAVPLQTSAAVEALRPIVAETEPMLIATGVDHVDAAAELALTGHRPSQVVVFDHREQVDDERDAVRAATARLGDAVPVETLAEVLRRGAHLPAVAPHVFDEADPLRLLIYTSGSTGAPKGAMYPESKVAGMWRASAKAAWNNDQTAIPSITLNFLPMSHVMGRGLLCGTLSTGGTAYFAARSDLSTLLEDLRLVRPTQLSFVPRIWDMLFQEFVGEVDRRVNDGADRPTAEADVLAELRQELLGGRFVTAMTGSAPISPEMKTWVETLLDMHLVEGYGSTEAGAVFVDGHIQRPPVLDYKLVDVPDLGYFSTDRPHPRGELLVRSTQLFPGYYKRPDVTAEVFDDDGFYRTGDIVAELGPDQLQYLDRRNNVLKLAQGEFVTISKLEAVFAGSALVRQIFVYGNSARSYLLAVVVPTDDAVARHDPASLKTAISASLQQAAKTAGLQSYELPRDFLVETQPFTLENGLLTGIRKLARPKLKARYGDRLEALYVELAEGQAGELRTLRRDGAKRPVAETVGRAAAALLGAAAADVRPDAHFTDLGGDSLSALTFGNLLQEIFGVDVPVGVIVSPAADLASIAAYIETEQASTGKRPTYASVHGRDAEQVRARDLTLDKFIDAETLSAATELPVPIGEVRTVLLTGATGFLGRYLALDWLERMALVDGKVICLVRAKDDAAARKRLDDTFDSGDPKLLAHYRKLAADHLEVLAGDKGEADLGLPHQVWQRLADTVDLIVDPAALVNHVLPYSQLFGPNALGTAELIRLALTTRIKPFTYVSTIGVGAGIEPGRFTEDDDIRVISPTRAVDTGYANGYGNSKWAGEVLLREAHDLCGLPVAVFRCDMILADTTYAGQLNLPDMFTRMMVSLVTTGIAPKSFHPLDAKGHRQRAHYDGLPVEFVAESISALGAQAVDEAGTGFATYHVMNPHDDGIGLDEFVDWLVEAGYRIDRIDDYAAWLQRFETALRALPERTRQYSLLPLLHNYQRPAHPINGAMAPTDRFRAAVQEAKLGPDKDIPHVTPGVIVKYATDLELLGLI

B1: Nocardia NRRL 5646 phosphopantetheinyl transferase (PPTase) (protein)
chain: MIETILPAGVESAELLEYPEDLKAHPAEEHLIAKSVEKRRRDFIGARHCARLALAELGEPPVAIGKGERGAPIWPRGVVGSLTHCDGYRAAAVAHKMRFRSIGIDAEPHATLPEGVLDSVSLPPEREWLKTTDSALHLDRLLFCAKEATYKAWWPLTARWLGFEEAHITFEIEDGSADSGNGTFHSELLVPGQTNDGGTPLLSFDGRWLIADGFILTAIAYA
- CAR activity (in vitro conversion of hexadecanoic acid to 1-hexadecanol; Y. lipolytica CAR lysate pre-incubated with E. coli Nocardia PPTase lysate), fold improvement [1]: by 3-5 times
- CAR activity (in vitro conversion of hexadecanoic acid to 1-hexadecanol; Y. lipolytica CAR lysate pre-incubated with E. coli Nocardia PPTase lysate), fold improvement [2]: by 9-20 times
